The source of these data is PMC7301157.

The target of this test is Clb3-Cdk1 (S. cerevisiae) (UniProt P24870).
UniProt P24870, sequence (P24870 whole entry, chain 1 of 2): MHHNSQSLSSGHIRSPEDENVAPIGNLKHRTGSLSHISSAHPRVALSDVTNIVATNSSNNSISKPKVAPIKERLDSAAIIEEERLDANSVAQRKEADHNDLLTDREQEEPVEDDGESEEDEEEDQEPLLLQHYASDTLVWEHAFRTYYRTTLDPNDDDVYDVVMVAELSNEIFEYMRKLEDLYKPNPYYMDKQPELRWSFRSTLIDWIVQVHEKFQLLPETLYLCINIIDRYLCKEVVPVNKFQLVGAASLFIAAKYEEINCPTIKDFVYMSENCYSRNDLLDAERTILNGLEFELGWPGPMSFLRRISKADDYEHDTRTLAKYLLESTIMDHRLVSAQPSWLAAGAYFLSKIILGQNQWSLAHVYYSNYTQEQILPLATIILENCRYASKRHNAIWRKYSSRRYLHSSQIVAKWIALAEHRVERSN
UniProt P24870, sequence (P00546 whole entry, chain 2 of 2, further chain): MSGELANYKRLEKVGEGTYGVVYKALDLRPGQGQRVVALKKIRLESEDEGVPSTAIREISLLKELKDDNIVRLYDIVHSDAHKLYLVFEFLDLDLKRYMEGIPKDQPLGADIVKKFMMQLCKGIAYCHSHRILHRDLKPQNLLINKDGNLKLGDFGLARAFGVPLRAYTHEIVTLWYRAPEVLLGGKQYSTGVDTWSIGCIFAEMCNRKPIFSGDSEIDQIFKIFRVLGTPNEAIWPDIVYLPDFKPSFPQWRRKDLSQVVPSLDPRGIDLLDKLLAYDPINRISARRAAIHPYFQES

With “Sic1(1–33 SPxA) model substrate with PPKGPNF (from UniProt P38634 1-33)”, the increase of the phosphorylation rate of the model substrate by Clb3-Cdk1 amounted to 65 fold.
